Source: the supplement of paper PMC9112550, “Optimization of the antimicrobial peptide Bac7 by deep mutational scanning” (BMC Biology, 2022)

Tested on: Escherichia coli TOP10
Test: shrunken log2 fold change of peptide-encoding DNA abundance (4.5 h post-induction vs induction); higher = less antimicrobial activity (less host growth inhibition)
Settings: time post-induction: 4.5 h; library: site-saturation at positions 5, 18, 19, 20
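Also: peptides expressed intracellularly from a pBAD plasmid library in pooled LB shake-flask culture, induced with 0.3% L-arabinose, DNA abundance read by NGS, three biological replicates, DESeq2 with apeglm shrinkage.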

Sequence	shrunken log2 fold change
RRIRSRPPRLPRPRPRPWDPPRP	0.0317
RRIRMRPPRLPRPRPRPRKMPRP	0.356
RRIRERPPRLPRPRPRPGYEPRP	-0.00204
RRIRDRPPRLPRPRPRPSMWPRP	-0.0184
RRIRHRPPRLPRPRPRPFKKPRP	-0.00783
RRIRGRPPRLPRPRPRPPYTPRP	0.145
RRIRWRPPRLPRPRPRPKGSPRP	0.0359
RRIRDRPPRLPRPRPRPHYHPRP	-0.806
RRIRSRPPRLPRPRPRPDSDPRP	0.051
RRIRFRPPRLPRPRPRPSTQPRP	-0.503
RRIRSRPPRLPRPRPRPHLNPRP	-0.158
RRIRQRPPRLPRPRPRPMPDPRP	-0.0292
RRIRERPPRLPRPRPRPDHKPRP	-0.501
RRIRERPPRLPRPRPRPFWFPRP	-0.303
RRIRSRPPRLPRPRPRPIHNPRP	-0.415
RRIRERPPRLPRPRPRPGDPPRP	0.103
RRIRYRPPRLPRPRPRPAYRPRP	-0.0312
RRIRWRPPRLPRPRPRPSYGPRP	-0.503
RRIRHRPPRLPRPRPRPIPKPRP	-0.0389
RRIRCRPPRLPRPRPRPITTPRP	-0.197
RRIRLRPPRLPRPRPRPRHPPRP	0.163
RRIRDRPPRLPRPRPRPSAHPRP	0.127
RRIRGRPPRLPRPRPRPKCRPRP	0.299

Sequence	shrunken log2 fold change
RRIRSRPPRLPRPRPRPYSEPRP	-0.561
RRIRRRPPRLPRPRPRPFHRPRP	0.0574
RRIRPRPPRLPRPRPRPVSKPRP	-0.166
RRIRIRPPRLPRPRPRPAVTPRP	-0.322
RRIRPRPPRLPRPRPRPMYAPRP	-0.302
RRIRVRPPRLPRPRPRPNGCPRP	0.0454
RRIRIRPPRLPRPRPRPGSYPRP	-0.277
RRIRRRPPRLPRPRPRPIITPRP	-0.253
RRIRGRPPRLPRPRPRPFVFPRP	0.608
RRIRTRPPRLPRPRPRPCWSPRP	0.499
RRIRPRPPRLPRPRPRPLFKPRP	-0.348
RRIRSRPPRLPRPRPRPSFPPRP	-0.557
RRIRRRPPRLPRPRPRPWQEPRP	0.00489
RRIRNRPPRLPRPRPRPSSFPRP	-0.127
RRIRARPPRLPRPRPRPNQEPRP	-0.000902
RRIRLRPPRLPRPRPRPQAAPRP	0.0357
RRIRTRPPRLPRPRPRPVKAPRP	0.0375
RRIRPRPPRLPRPRPRPQYHPRP	-0.68
RRIRGRPPRLPRPRPRPDNDPRP	0.0238
RRIRYRPPRLPRPRPRPKPYPRP	-0.698
RRIRSRPPRLPRPRPRPAYFPRP	-0.297
RRIRSRPPRLPRPRPRPEFYPRP	-0.131
RRIRVRPPRLPRPRPRPAIKPRP	-0.202

Sequence	shrunken log2 fold change
RRIRTRPPRLPRPRPRPDCYPRP	-0.000691
RRIRMRPPRLPRPRPRPAYPPRP	0.0222
RRIRQRPPRLPRPRPRPHMTPRP	-0.391
RRIRARPPRLPRPRPRPKEKPRP	0.0797
RRIRFRPPRLPRPRPRPQLMPRP	-0.32
RRIRFRPPRLPRPRPRPIAIPRP	-0.149
RRIRQRPPRLPRPRPRPPFNPRP	-0.159
RRIRQRPPRLPRPRPRPWPDPRP	-0.0854
RRIRYRPPRLPRPRPRPHPQPRP	-0.0957
RRIRYRPPRLPRPRPRPDQNPRP	-0.269
RRIRIRPPRLPRPRPRPIFRPRP	-0.013
RRIRFRPPRLPRPRPRPVEYPRP	-0.109
RRIRERPPRLPRPRPRPGIKPRP	-0.587
RRIRQRPPRLPRPRPRPCFFPRP	-0.101
RRIRLRPPRLPRPRPRPLWFPRP	-0.543
RRIRERPPRLPRPRPRPAALPRP	-0.0784
RRIRQRPPRLPRPRPRPIKTPRP	-0.0201
RRIRNRPPRLPRPRPRPQFEPRP	-0.013
RRIRSRPPRLPRPRPRPSMEPRP	-0.0673
RRIRHRPPRLPRPRPRPAVGPRP	0.11
RRIRHRPPRLPRPRPRPCGIPRP	-0.0112
RRIRDRPPRLPRPRPRPRGNPRP	0.088
RRIRFRPPRLPRPRPRPDYGPRP	-0.238

Sequence	shrunken log2 fold change
RRIRGRPPRLPRPRPRPSFEPRP	0.647
RRIRYRPPRLPRPRPRPECSPRP	-0.15
RRIRFRPPRLPRPRPRPDYQPRP	-0.268
RRIRPRPPRLPRPRPRPKPWPRP	0.227
RRIRWRPPRLPRPRPRPHDLPRP	-0.0525
RRIRVRPPRLPRPRPRPVIVPRP	-0.349
RRIRTRPPRLPRPRPRPLFEPRP	-0.166
RRIRRRPPRLPRPRPRPQLIPRP	-0.0726
RRIRKRPPRLPRPRPRPIVCPRP	-0.00674
RRIRPRPPRLPRPRPRPHCVPRP	-0.0495
RRIRMRPPRLPRPRPRPIDNPRP	0.213
RRIRQRPPRLPRPRPRPSEDPRP	-0.0593
RRIRARPPRLPRPRPRPPFDPRP	0.922
RRIRRRPPRLPRPRPRPMDPPRP	0.139
RRIRYRPPRLPRPRPRPKHWPRP	0.266
RRIRKRPPRLPRPRPRPDPTPRP	0.273
RRIRNRPPRLPRPRPRPWGEPRP	0.157
RRIRTRPPRLPRPRPRPYTYPRP	-0.489
RRIRHRPPRLPRPRPRPAKLPRP	-0.352
RRIRNRPPRLPRPRPRPRLGPRP	0.187
RRIRQRPPRLPRPRPRPTPGPRP	0.417
RRIRLRPPRLPRPRPRPESEPRP	-0.000997
